The target in assay [1] is T1, IGF-1R, insulin-like growth factor 1 receptor (human, UniProt P08069 31-1367).
T1 construct: On IGF-IR transfected 3T3 cells (hIGF-1R-3T3) in cell ELISA, or from their extracts in pull-downs (detected through the beta subunit); The entry is the precursor; the processing into alpha and beta subunits is not described; also called IGF-IR; IGF-1 receptor
Description: saturation binding to IGF-IR/3T3 cells, herstatin ELISA, nonlinear regression (FIG. 5B). The method, then:
(§1) ELISA. […] Cells were washed with Phosphate Buffered Saline (PBS) and extracted in 50 mM Tris-HCl, pH 7.0, 1.0% NP-40.
(§2) Statistical comparisons between different binding curves were performed by extra sums-of-squares F-test nonlinear regression coefficients. All tests were performed (α=0.05) using GraphPad Prism 4™ software (GraphPad™ Software, 1994-2003).

For assay [2], the target named is HER-4 (erbB-4), human receptor (human, UniProt Q15303 26-1308). As to the kind of experiment: ELISA of Int8 bound to transfected cells (FIG. 3B). How it is done: as §1
Sequence of HER-4 (erbB-4), human receptor (Q15303 26-1308 limits assumed): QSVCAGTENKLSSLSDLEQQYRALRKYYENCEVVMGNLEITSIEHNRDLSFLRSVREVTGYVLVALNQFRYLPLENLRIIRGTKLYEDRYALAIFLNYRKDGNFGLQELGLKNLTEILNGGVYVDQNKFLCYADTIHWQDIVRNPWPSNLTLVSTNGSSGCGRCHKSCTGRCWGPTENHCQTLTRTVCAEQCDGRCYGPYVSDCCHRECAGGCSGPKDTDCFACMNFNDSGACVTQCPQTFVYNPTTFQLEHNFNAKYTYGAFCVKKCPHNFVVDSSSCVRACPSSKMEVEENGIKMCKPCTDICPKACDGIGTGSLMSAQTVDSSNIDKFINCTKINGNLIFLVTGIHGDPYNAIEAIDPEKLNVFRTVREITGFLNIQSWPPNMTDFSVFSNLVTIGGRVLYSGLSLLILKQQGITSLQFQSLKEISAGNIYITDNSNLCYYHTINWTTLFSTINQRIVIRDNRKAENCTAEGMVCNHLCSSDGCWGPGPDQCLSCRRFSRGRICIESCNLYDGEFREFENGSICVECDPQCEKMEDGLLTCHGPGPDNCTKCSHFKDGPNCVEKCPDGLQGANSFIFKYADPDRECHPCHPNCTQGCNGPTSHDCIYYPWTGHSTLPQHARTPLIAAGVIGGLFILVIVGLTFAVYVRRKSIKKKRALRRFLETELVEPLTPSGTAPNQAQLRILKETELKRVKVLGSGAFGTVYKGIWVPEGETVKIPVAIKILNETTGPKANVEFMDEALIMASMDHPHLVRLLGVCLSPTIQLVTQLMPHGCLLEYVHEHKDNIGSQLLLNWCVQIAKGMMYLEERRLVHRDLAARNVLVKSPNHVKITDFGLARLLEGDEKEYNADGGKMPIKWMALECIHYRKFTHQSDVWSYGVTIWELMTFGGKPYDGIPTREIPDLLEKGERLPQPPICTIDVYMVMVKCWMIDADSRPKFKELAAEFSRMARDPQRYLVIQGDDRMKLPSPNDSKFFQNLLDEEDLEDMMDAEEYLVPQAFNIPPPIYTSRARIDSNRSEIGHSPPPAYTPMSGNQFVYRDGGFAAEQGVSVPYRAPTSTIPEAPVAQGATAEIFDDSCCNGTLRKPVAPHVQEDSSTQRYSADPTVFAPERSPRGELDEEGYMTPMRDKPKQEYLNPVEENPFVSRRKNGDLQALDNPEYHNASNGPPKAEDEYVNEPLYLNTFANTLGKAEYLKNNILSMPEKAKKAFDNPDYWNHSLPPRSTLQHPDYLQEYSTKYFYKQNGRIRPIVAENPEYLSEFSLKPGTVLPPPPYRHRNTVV
Background: ELISA stands for enzyme-linked immunosorbent assay.

Assay [3] has as its target T1, IGF-1R, insulin-like growth factor 1 …. Description: saturation binding to IGF-IR transfected 3T3 cells, herstatin ELISA, nonlinear regression. The method, then:
as §1, §2

Assay [4] has the same target. As to the kind of experiment: saturation binding to IGF-IR 3T3 cells, herstatin ELISA (determination of EXAMPLE 2). How it is done:
as §1, §2

In assay [5] the target is T2, EGFR (HER-1, erbB-1), human epidermal growth factor receptor (human, UniProt P00533 25-1210).
T2 construct: also called EGF receptor
Description: saturation binding to EGFR-transfected Cos-7 cells, herstatin ELISA, nonlinear regression (FIG. 5A). The method, then:
as §1, §2

Assay [6] concerns the target T3, HER-2 (erbB-2), human receptor (human, UniProt P04626 23-1255).
T3 construct: On HER-2-transfected Cos-7 cells or 3T3/HER-2 cells (cell ELISA), or from transfected Cos-7 cell extracts (pull-down)
Description: saturation binding to HER-2-transfected Cos-7 cells, herstatin ELISA, nonlinear regression (FIG. 5A). The method, then: as §1, §2

The target in assay [7] is T3, HER-2 (erbB-2), human receptor. As to the kind of experiment: saturation binding to HER-2/3T3 cells, herstatin ELISA, nonlinear regression (FIG. 5B). The method, then: as §1, §2
The target is the same in assay [8]. Description: herstatin ELISA of peptide bound to HER-2 overexpressing cells. The method, then: as §1
For assay [9] the target is unchanged. As to the kind of experiment: pull-down of HER-2 from transfected cell extracts, Western blot. The method, then:
Methods. Cell lines, expression vectors, protein purification, pull down assays, antibodies and ELISA assays were as described under EXAMPLE 1, herein above. […] Following washing steps, the protein bound to the agarose was analyzed as a Western blot with receptor-specific antibodies.
(In general: A western blot detects proteins with antibodies after separation by electrophoresis.)

Residue numbers refer to the chain shown, from its start.

T1 sequence (P08069 31-1367 limits assumed): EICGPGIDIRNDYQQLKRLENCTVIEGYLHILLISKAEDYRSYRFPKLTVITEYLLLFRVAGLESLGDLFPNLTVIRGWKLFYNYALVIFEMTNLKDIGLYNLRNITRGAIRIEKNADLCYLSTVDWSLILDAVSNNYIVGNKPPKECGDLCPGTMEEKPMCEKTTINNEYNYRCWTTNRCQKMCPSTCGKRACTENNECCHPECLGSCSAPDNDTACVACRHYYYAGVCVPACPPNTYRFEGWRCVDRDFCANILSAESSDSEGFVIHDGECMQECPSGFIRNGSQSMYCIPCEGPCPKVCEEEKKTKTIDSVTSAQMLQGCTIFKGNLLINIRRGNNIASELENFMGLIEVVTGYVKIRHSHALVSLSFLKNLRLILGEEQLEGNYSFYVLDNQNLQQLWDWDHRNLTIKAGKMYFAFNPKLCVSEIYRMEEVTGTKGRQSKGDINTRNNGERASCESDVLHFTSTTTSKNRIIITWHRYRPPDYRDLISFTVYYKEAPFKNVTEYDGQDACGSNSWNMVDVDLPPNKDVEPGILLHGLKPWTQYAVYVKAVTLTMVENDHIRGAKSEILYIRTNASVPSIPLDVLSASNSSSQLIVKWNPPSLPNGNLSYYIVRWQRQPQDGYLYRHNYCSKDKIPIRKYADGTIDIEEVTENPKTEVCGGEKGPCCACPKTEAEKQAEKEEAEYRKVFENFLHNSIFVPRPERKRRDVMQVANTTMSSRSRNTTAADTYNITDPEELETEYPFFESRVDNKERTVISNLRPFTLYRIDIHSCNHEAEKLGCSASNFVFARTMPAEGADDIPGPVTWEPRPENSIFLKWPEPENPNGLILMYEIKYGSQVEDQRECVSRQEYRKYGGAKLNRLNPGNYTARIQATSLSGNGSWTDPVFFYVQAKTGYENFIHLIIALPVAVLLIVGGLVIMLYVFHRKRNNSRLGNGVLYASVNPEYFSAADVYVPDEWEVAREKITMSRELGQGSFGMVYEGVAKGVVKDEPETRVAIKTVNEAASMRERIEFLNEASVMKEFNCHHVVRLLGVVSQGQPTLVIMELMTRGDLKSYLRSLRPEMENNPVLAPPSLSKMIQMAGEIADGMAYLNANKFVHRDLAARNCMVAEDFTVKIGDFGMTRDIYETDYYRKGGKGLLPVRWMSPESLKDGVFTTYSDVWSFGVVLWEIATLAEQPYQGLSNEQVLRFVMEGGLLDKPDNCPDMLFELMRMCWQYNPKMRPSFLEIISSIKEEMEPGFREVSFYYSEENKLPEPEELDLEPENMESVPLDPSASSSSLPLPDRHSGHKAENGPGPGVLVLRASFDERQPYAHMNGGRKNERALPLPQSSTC

B1: RBD Int8 polypeptide (intron 8-encoded receptor binding domain of herstatin, expressed as a bacterial peptide) (peptide)
chain: GTHSLPPRPAAVPVPLRMQPGPAHPVLSFLRPSWDLVSAFYSLPLAPLSPTSVPISPVSVGRGPDPDAHVAVDLSRYEG
notes: Purified from BL-21 bacteria; also called Int8 RBD polypeptide; Int8 peptide; not shown: pET 30 vector-encoded tags (His tag used for nickel purification, S-protein tag used for immobilisation)
Regarding B1, the Kd (in general, the concentration at which binding is half-saturated) in [1] was 70 nM; in [3] it was 40 to 150 nM; in assay [4], 40 nM; in assay [5], 78 nM; in assay [6], 50 nM; in [7], 66 nM. Besides, the binding result in assay [2] is on record as “binds”.

B2: mutant Int8 polypeptide with Arg to Ile mutation at residue 31 (peptide, not shown: small tags and cut ends)
chain: B1 chain with R31I
notes: also called mutant RBD Int8 polypeptide; mutant Int8 RBD polypeptide
On to B2, for which, in [8], the “fold weaker binding than the wildtype peptide” value was approximately 2 fold. In addition, the “fold weaker binding than the wild type sequence (SEQ ID NO:24)” value in assay [9] was approximately 2 fold.

The values are drawn from patent US20050272637A1 (OREGON HEALTH AND SCIENCE UNIVERSITY, published 2005).
